{"source": "paper PMC5983787", "origin": "cited, not measured here", "key": {"Cx43 [1]": {"molecular_target": "Cx43 (UniProt P17302)", "sequence (P17302 2-382)": "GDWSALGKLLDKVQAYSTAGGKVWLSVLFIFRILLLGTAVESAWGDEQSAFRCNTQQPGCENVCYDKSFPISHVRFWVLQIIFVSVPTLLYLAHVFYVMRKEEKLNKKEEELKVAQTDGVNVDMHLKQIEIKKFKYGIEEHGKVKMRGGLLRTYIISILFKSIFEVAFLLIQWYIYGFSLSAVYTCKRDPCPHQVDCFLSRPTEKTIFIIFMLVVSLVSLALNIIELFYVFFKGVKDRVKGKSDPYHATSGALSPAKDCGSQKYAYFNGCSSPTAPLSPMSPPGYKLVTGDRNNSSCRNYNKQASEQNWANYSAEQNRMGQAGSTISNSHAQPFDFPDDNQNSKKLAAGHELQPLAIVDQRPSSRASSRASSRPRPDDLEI"}, "Cx43 [2]": {"molecular_target": "Cx43 (UniProt P17302)", "remark": "listed apart in the source"}}, "note": "pKd: −log10 of the molar value. Where two headings read alike, the source gives them in different places.", "data": [{"substance": "Nedd4 (from UniProt P46934)", "values": [{"measurement": "pKd", "setting": "Cx43 [1]", "value": 3.23}, {"measurement": "pKd", "setting": "Cx43 [2]", "value": 2.97}]}]}
